These results are taken from US20140308307A1 (University of Texas, published 2014).

The target of experiment [1] is 30-kDa subunit of the cellular cleavage and polyadenylation specificity factor (CPSF30), human (human) (UniProt O95639). Put plainly: cell-based or functional assay.
For experiment [2], the target named is NS1A protein of the influenza A/PR8/34 (PR8) virus strain (influenza A virus A/PR8/34, UniProt P03496 1-230). Put plainly: not described.
Sequence of NS1A protein of the influenza A/PR8/34 (PR8) virus strain (P03496 whole entry): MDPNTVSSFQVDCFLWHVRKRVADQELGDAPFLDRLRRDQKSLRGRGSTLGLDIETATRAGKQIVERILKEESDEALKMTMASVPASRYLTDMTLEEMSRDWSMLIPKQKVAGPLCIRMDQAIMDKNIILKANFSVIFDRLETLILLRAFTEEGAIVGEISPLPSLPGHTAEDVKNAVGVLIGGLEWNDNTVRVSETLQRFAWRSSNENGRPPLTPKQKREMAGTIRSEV

Sequence of 30-kDa subunit of the cellular cleavage and polyadenylation specificity factor (CPSF30), human (human) (O95639 whole entry): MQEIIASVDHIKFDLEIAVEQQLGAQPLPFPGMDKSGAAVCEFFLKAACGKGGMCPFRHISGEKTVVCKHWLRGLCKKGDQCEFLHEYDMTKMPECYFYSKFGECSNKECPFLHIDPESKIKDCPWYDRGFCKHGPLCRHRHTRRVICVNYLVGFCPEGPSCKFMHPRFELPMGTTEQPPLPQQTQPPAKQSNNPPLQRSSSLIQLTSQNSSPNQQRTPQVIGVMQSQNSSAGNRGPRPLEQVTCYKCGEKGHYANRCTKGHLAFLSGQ

“HK97 NS1A protein with I at position 106 changed to M and L at 103 changed to F”: in experiment [1], the rate of replication and virus yield during multiple cycle growth is 100 fold.

B1: F2F3 fragment of CPSF30 (construct not stated) (other)
chain: SGEKTVVCKHWLRGLCKKGDQCEFLHEYDMTKMPECYFYSKFGECSNKECPFLHIDPESKI
On to B1, for which, in experiment [2], the binding result was “no binding”.
